{
  "source": "paper PMC8115288",
  "about": "(2021)",
  "binders": {"B1": {"name": "His6-SUMO-INI1_(183-304) (domain or fragment)", "chain": "PEVLVPIRLDMEIDGQKLRDAFTWNMNEKLMTPEMFSEILCDDLDLNPLTFVPAIASAIRQQIESYPTDSILEDQSDQRVIIKLNIHVGNISLVDQFEWDMSEKENSPEKFALKLCSELGLG"}},
  "key": {"[1]": {"molecular_target": "T1, GST-CTD (C-terminal domain of HIV-1 integrase, aa 201-288) (HIV-1 (Hx3B), UniProt P04585 1348-1435)", "T1 chain": "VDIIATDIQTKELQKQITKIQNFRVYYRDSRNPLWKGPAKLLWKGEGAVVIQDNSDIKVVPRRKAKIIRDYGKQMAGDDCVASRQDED", "experiment": "GST-CTD 0.027 uM"}, "[2]": {"molecular_target": "T1, GST-CTD (C-terminal domain of HIV-1 …)", "experiment": "GST-CTD 0.083 uM"}},
  "data": [
    {"binder": "B1", "values": [
      {"measurement": "Kd", "setting": "[1]", "result": 3.5, "unit": "nM"},
      {"measurement": "Kd", "setting": "[2]", "result": 3, "unit": "nM"}
    ]}
  ]
}
